Data on two substances can be found in patent publication US20030109691A1.

The target of one test is CD54 (ICAM-1) (UniProt P05362). Put plainly: SPR (BIAcore), CD54 on CM5 chip, A domain flowed; linear transformation, mean±SD, n=2.
The next test has as its target fibrinogen (UniProt P02671). Briefly: SPR (BIAcore), fibrinogen on CM5 chip, A domain flowed; linear transformation, mean±SD, n=2. Background: SPR reads the build-up and loss of mass on a sensor chip optically.
In test [1] the target is complement iC3b (UniProt P01024). Put plainly: SPR (BIAcore), iC3b on CM5 chip, A domain flowed; linear transformation, mean±SD, n=2.
Test [2] shares this target. Put plainly: SPR (BIAcore), iC3b on CM5 chip, A domain flowed.

Sequence of fibrinogen (P02671 20-629 limits assumed, chain 1 of 3): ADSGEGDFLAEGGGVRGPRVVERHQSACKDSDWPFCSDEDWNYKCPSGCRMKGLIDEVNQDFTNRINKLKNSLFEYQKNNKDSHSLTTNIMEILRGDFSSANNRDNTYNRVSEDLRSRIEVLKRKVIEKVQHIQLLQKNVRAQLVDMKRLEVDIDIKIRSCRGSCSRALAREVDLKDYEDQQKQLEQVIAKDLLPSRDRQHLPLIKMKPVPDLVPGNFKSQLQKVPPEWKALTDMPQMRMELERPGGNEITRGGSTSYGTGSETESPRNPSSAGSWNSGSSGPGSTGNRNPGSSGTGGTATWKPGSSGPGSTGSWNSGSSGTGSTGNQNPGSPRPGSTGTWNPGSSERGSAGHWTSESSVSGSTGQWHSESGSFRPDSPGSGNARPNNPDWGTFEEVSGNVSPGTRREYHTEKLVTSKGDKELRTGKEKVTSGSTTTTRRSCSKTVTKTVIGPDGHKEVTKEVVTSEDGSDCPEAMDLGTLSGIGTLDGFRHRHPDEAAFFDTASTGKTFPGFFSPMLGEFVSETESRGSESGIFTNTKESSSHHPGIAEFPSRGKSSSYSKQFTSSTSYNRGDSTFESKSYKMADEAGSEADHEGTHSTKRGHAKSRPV
Sequence of fibrinogen (P02675 31-491 limits assumed, chain 2 of 3, further chain): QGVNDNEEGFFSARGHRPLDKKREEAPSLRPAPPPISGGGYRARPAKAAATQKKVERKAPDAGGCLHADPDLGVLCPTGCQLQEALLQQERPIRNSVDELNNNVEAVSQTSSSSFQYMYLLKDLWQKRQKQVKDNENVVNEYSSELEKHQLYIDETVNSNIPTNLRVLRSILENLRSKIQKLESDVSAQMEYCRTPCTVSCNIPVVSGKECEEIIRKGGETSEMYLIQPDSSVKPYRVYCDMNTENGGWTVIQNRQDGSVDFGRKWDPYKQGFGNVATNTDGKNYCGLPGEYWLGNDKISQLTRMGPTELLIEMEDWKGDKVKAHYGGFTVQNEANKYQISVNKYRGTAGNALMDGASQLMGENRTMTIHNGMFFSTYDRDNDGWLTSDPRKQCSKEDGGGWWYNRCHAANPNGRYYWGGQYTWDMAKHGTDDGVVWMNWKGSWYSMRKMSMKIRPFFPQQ
Sequence of fibrinogen (P02679 other isoform, or with tags, fused parts or gaps limits assumed, chain 3 of 3, further chain): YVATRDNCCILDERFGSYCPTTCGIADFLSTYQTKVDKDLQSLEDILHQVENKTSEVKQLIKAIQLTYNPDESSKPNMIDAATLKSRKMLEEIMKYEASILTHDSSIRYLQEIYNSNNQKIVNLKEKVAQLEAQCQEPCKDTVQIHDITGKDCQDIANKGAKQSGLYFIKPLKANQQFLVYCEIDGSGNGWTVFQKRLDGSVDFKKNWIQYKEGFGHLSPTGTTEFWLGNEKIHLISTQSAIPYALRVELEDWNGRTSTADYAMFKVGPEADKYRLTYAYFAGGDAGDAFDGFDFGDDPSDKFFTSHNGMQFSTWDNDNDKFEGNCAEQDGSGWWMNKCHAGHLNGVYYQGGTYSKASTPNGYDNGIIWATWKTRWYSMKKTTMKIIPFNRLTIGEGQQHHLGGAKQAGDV
Sequence of CD54 (ICAM-1) (P05362 28-480 limits assumed): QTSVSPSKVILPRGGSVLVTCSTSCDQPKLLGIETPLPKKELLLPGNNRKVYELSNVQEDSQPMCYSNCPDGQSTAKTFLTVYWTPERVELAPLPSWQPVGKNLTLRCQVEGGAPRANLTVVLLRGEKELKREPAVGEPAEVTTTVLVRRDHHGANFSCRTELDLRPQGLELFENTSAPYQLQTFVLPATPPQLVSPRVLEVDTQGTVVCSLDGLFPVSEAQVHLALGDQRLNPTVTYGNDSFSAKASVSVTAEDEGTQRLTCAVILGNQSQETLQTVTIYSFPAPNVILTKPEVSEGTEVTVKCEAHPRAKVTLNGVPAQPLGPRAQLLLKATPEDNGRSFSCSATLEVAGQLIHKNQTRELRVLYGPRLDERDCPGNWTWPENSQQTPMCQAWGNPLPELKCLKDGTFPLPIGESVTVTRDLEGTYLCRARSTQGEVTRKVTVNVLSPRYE

As to “variant CD11b A domain consisting of amino acids E123 to K315 (11bA^123-315) (from UniProt P11215 139-331) (receptor)”, the Kd (as a rule, a measure of binding affinity in units of concentration) in the test with CD54 (ICAM-1) was 220 nM; with fibrinogen it was 250 nM; with complement iC3b [1] it was 460 nM.
“variant CD11b A domain with an Ile to Gly change at residue 316 (11bA^I→G) (from UniProt P11215 139-337) (receptor)”: the dissociation constant Kd in the test with complement iC3b [2] worked out at 660 nM.
